Here are results for 3 substances from patent publication US20080280828A1.

Experiment [1] has as its target guinea pig IgG (Sigma) (guinea pig). Nature of the experiment: SPR (BIAcore 2000), Ig immobilised on CM5 chip, tick sample as analyte. For orientation: SPR reads the build-up and loss of mass on a sensor chip optically.
Experiment [2] concerns the target rabbit IgG F(ab')2 fragment (ICN) (rabbit). The description is as above.
The target in experiment [3] is human IgG Fc fragment (ICN) (human). The experiment is described as above.
Experiment [4] deals with rat recombinant IgE (Serotech) (rat). The description is as above.
Experiment [5] has as its target guinea pig IgG (Sigma) (guinea pig). Nature of the experiment: SPR (BIAcore 2000); RBA further normalised to amount of protein against fSGED6.
The target of experiment [6] is rabbit IgG F(ab')2 fragment (ICN) (rabbit). The experiment is described as above.
Experiment [7] concerns the target human IgG Fc fragment (ICN) (human). The description is as above.
Experiment [8] addresses rat recombinant IgE (Serotech) (rat). The description is as above.
Experiment [9] has as its target guinea pig IgG (Sigma) (guinea pig). The experiment can be described thus: SPR (BIAcore 2000); normalised to binding of fSGED6 to IgG, corrected for relative molar amount of ligand.
The target in experiment [10] is rabbit IgG F(ab')2 fragment (ICN) (rabbit). The description is as above.
The target in experiment [11] is human IgG Fc fragment (ICN) (human). Described as above.
Experiment [12] has as its target rat recombinant IgE (Serotech) (rat). Described as above.
Experiment [13] has the same target. The experiment can be described thus: SPR (BIAcore 2000); ratio of RBA on IgE to RBA on guinea pig IgG.
The target in experiment [14] is human IgG Fc fragment (ICN) (human). The experiment can be described thus: SPR (BIAcore 2000); ratio of RBA on Fc to RBA on F(ab')2.

rat recombinant IgE (Serotech) (rat), sequence (P01855 whole entry): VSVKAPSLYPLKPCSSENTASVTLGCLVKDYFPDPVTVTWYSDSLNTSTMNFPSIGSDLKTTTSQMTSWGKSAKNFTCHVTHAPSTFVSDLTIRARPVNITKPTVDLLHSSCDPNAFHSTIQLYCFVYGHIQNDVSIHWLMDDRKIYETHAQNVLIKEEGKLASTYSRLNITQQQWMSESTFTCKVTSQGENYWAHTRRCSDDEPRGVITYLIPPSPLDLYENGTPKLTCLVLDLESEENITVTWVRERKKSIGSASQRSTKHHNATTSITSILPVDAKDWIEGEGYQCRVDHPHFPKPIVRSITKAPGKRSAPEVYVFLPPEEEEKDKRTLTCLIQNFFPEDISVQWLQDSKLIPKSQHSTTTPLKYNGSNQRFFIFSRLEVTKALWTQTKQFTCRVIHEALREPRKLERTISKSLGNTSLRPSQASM

“partially fed (day 6) female tick salivary gland extract”: the Yield-binding (RU2) turned out to be 263 RU in experiment [1], 13 RU in experiment [2], 748 RU in [3] and 283 RU in experiment [4]. The RBA/mg protein in [5] was found to be 1; in experiment [6], 0; in experiment [7], 1.1; in experiment [8], 1.3. Besides, the Relative binding activity (RBA) in experiment [9] was found to be 1; in experiment [10] it was 0; in experiment [11], 1.1; in [12], 1.3. For the same substance, the RBAIgE/RBAIgG in [13] worked out at 1.2.
“partially fed (day 6) male tick salivary gland extract”: the RBAFc/RBAF(ab′)2 in experiment [14] stood at 1.1. Further, the Yield-binding (RU2) in [1] amounted to 719 RU; in experiment [2], 823 RU; in [3], 1720 RU; in [4], 762 RU. For the same substance, the RBA/mg protein in experiment [5] was 5.5; in [6], 4.5; in experiment [7] it was 4.9; in experiment [8] it was 7.3. The Relative binding activity (RBA) in experiment [9] came to 2.7; in experiment [10], 2.2; in experiment [11] it was 2.4; in experiment [12], 3.6. For the same substance, in experiment [13], the RBAIgE/RBAIgG came to 1.2.
As for “partially fed (day 7), dopamine-stimulated female tick saliva”, the RBAFc/RBAF(ab′)2 in [14] is 1.1. The Yield-binding (RU2) turned out to be 5100 RU in [1], 2770 RU in [2], 5830 RU in experiment [3] and 4960 RU in [4]. For the same substance, the RBA/mg protein in [5] is 775; in experiment [6], 301; in experiment [7], 328; in experiment [8] it was 943. Besides, the Relative binding activity (RBA) came out at 19.4 in experiment [9], 7.5 in experiment [10], 8.2 in experiment [11] and 23.6 in experiment [12]. The RBAIgE/RBAIgG in experiment [13] was 1.2.
